Measured values as given in article PMC10352601 (Blood, 2023).

Target: T1, ET3i, a bioengineered human/porcine FVIII chimera (Homo sapiens / Sus scrofa chimera (A1, …, chimera))
T1 chain: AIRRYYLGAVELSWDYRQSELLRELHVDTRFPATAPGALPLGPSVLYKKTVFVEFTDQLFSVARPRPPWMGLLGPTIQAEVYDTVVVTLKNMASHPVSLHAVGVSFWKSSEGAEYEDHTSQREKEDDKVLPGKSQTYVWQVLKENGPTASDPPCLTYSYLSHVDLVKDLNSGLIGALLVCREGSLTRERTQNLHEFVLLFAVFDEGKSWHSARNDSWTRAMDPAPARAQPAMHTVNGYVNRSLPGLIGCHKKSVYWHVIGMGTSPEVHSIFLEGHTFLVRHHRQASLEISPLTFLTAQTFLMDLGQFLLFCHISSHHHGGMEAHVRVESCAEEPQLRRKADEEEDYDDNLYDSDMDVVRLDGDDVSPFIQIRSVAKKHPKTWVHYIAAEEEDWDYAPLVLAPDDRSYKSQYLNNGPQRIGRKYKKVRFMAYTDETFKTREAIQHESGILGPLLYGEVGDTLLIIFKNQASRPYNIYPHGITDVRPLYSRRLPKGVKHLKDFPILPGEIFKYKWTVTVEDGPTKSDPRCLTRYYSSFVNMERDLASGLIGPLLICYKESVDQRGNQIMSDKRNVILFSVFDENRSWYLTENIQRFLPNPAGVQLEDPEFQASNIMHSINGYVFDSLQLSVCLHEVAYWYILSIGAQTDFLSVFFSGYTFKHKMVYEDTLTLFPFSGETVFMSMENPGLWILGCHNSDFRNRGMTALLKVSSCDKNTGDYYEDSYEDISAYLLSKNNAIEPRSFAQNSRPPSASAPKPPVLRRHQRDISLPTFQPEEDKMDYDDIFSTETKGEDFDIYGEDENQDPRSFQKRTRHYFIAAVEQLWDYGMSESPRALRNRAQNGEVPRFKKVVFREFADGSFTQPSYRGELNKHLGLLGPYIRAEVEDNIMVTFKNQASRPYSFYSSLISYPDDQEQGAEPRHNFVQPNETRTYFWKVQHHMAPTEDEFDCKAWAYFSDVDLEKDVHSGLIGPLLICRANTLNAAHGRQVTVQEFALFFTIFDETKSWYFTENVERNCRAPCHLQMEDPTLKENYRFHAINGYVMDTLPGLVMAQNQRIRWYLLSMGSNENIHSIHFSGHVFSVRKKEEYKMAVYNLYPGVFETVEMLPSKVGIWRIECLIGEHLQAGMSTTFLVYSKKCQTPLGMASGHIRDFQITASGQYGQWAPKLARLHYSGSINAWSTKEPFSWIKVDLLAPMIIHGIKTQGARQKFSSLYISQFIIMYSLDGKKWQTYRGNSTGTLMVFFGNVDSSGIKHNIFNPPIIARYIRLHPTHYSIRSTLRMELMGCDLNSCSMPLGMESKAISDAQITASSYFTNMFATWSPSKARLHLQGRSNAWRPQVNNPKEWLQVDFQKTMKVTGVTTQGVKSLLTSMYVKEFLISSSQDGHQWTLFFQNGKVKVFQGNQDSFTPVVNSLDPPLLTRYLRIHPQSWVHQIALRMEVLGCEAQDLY
Experiment: cell-based or functional assay

- neutralization of ET3i by NB33, factor X activation chromogenic assay (IC50): 3.64 nM
B1: Fab fragment of NB33, a recombinant immunoglobulin G derivative of KM33 (Fab, V domains shown)
VH: EVQLVESGGGVVQPGRSLRLSCVDSGLTFSSYGMHWVRQAPGAGLEWVAVISYDGNDKYYADSVKGRFAISRDNAKNTLYLQMNSLTIEDTAVYYCAKDLIESNIAEAFWGQGTLVTVSS
VL: DIQMTQSPSSLSASVGDTVTIACRASRDIRNDLAWYQQKPGKAPKLLIYATSRLQSGVPSRFSGSGSFTDFTLTINSLQPDDSATYYCLQDSDYPLTFGGGTKVDIK
